{
  "source": "paper PMC9652331",
  "about": "“Cryo-EM structures of human m6A writer complexes”",
  "molecular_target": "HAKAI;WTAP;VIRMA;ZC3H13 (1106-1668);METTL3;METTL14 (Homo sapiens;Homo sapiens;Homo …, UniProt Q75N03;Q15007;Q69YN4;Q5T200;Q86U44;Q9HCE5 …, |||||)",
  "assay": "s4U UV crosslinking MS; sites METTL3 F321; VIRMA P140, E1597, F1706; EMSA: 5 nM FAM-RNA, 20 mM HEPES pH 7.5, 100 mM KCl, 10% glycerol, 1 mM DTT, 25 C, 20 min; 8% native PAGE in 1x TBE at 4 C; Kd from loss of free RNA, Hill fit, n",
  "conditions": "protein: recombinant;recombinant;recombinant;recombinant;recombinant;recombinant, tags: untagged;N-6xHis;N-6xHis;N-Twin-Strep;N-GST-TEV, removed;N-6xHis-TEV",
  "data": [
    {"binder": "s4U-ACTB-1 RNA (ssRNA, 4-thiouridine (s4U); positions not given) RNA: GGCCCCUCCAUCGUCCACCGCAAAUGCUUCUAGGCGGACUAUGACUUAGUUGCGUUACACCCUUUCUUGACAAAACCUAACUUGCACAGAAAACA", "values": [
      {"measurement": "binding result", "result": "binds"}
    ]}
  ]
}
